The results in this text go back to patent publication US20250049970A1, “DLL3 TARGETING PEPTIDES AND CONSTRUCTS THEREOF” (MARIANA ONCOLOGY INC., priority 2023, published 2025).

Assay [1] addresses T1, DLL3 on SHP-77 cells (human, UniProt Q9NYJ7 27-618).
T1 construct: SHP-77 cells are human-derived, non-engineered SCLC cells
T1 sequence: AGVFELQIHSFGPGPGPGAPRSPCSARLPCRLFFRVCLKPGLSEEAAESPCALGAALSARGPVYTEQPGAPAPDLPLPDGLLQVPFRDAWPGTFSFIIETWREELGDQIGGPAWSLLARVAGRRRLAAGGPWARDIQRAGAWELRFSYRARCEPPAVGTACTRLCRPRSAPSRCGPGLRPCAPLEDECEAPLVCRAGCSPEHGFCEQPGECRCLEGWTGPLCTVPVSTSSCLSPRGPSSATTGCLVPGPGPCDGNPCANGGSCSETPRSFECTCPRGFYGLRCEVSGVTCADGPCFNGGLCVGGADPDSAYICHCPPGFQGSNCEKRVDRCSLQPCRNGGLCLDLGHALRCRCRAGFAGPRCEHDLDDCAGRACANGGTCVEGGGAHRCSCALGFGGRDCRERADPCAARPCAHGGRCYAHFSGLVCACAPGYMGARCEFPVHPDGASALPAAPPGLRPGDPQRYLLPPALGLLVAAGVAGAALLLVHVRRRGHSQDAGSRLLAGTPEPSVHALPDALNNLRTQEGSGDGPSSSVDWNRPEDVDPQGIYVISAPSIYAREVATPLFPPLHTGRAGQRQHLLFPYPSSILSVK
The assay is described as follows: [177Lu]Lu-labelled peptide on SHP-77 cells, 1 h 37 C, gamma counter; C = %>50.

Assay [2] addresses DLL3 on CT26.DLL3 cells (Homo sapiens (Human)) (UniProt Q9NYJ7). As to the kind of experiment: [177Lu]Lu-labelled peptide on CT26.DLL3 cells, 1 h 37 C, gamma counter; B = 25<%<=50.
Assay [3] has as its target T1, DLL3 on SHP-77 cells. As to the kind of experiment: [177Lu]Lu-labelled peptide on SHP-77 cells, 1 h 37 C, gamma counter; A = %<=25. On the procedure:
(§1) Adherent cell studies: The cells were cultured in appropriate culture media (20 mL) in tissue culture treated T150 flasks at 37° C. and 5% C02. Adherent cells were detached (60-70% confluent) using 5 mL Versene at 37° C. for 3 minutes. After confirming the viability using countess and count of detached cells using Trypan blue, the cells were centrifuged at 4° C. for 5 minutes (1,000 rpm). The cell pellet obtained was washed once with PBS and resuspended in 1% PBSA to obtain the desired cell concentration (5-25 million cells/mL).
(§2) Total uptake: Cells were incubated with 300 μL (0.8 μCi) of the incubation buffer (containing radiolabeled peptide [¹⁷⁷Lu]Lu-test peptide) for 1 hour at 37° C. (Table 10). Post incubation, the cells were pelleted and washed 2 times using cold PBS+1% BSA. The supernatant and washes were combined and counted together as “unbound fraction” in a gamma counter. The cells were then resuspended in 300 μL of 1% PBS+1% BSA and counted in the gamma counter as “bound fraction”.

The target in the next assay is T2, DLL3 on CT26.DLL3 cells (Homo sapiens (Human), UniProt Q9NYJ7 27-618).
T2 construct: CT26.DLL3 are engineered cells to express DLL3
T2 sequence: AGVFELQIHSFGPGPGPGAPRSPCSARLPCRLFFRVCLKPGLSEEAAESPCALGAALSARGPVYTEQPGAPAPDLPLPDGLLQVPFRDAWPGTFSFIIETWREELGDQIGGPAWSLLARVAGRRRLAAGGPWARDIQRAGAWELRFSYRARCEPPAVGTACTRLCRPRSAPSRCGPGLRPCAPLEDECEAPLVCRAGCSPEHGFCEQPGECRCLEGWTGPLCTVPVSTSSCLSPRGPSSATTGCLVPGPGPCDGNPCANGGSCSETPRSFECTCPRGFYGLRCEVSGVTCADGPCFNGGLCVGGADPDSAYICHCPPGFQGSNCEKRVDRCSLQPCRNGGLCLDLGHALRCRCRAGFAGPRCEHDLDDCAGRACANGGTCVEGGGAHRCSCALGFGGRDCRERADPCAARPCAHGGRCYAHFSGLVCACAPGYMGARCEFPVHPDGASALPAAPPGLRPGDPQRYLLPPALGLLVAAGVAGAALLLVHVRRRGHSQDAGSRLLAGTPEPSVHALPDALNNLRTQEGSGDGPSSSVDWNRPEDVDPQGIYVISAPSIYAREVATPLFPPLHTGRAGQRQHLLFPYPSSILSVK
As to the kind of experiment: [177Lu]Lu-labelled peptide on CT26.DLL3 cells, 1 h 37 C, gamma counter; A = %<=25. On the procedure:
as §1, §2

Values joined by “and” are separate entries in the source; they are usually repeats but may differ in a detail not shown here. Equal values may be shown once. *1 amine or outer side, *2 acyl side, *3 side chain or, on linkers, in order; H or OH if unused. Bridges are numbered along the chain shown (N, C = ends). Side-chain parts run from the residue outwards. [ ]: non-standard residue; d: D form. The star is where a group is joined. PipA(acetate-DOTA) = (3-(4-piperidinyl)-Ala)-(1,4,7,10-tetraazacyclododecane-1,4,7-triyl)triacetic acid, O=C(O)CN1CCN(CC(=O)O)CCN(CC(=O)N2CCC(C[C@H](N[*:1])C(=O)[*:2])CC2)CCN(CC(=O)O)CC1; PipA(Peg) = 3-(4-piperidinyl)-Ala-(3-hydroxypropanoic acid), O=C(CCO[*:3])N1CCC(C[C@H](N[*:1])C(=O)[*:2])CC1; Ala(1-CH2CO2H-4-piperidyl) = N[C@@H](CC1CCN(CC(=O)O)CC1)C(=O)O; Ala(piperidin-4-yl) = O=C([C@H](CC1CCN([*:3])CC1)N[*:1])[*:2]; DOTA = O=C(O)CN1CCN(CC(=O)O)CCN(CC(=O)*)CCN(CC(=O)O)CC1; PEG8 = NCCOCCOCCOCCOCCOCCOCCOCCOCCC(=O)O; 2Nal = N[C@@H](Cc1ccc2ccccc2c1)C(=O)O; NMetBuAla = CN[C@@H](CC(C)(C)C)C(=O)O; Gly(4-THP) = N[C@H](C(=O)O)C1CCOCC1; Chg = N[C@H](C(=O)O)C1CCCCC1; NMeNle = CCCC[C@H](NC)C(=O)O; Tle = CC(C)(C)[C@H](N)C(=O)O; plPh = not defined here; CH2 = C([*:1])[*:2]

B1: Cpd No. 447 (peptide)
peptide: Ac-WT[NMetBuAla]C[Ala(1-CH2CO2H-4-piperidyl)]N[2Nal]K(DOTA)DCWP-NH2
modifications: linker 4-10 via CH2
For the molecule B1, the % Binding in the assay with DLL3 on SHP-77 cells [1] is > 50%.

B2: Cpd No. 442 (peptide)
peptide: Ac-WT[NMetBuAla]C[Ala(piperidin-4-yl)]N[2Nal]K(DOTA)DCWP-OH
modifications: linker 4-10 via CH2
As for B2, the % Binding with DLL3 on SHP-77 cells [1] was > 50%.

B3: Cpd No. 448 (peptide)
peptide: Ac-WT[NMetBuAla]C[PipA(Peg)]N[2Nal]K(DOTA)DCWP-NH2
modifications: linker 4-10 via CH2
For the molecule B3, the % Binding in the assay with DLL3 on SHP-77 cells [1] was > 50%.

B4: Cpd No. 445 (peptide)
peptide: Ac-WT[NMetBuAla]C[Ala(piperidin-4-yl)]N[2Nal]K(DOTA)DCWP[dK]-NH2
modifications: bridge 4-10; not fully specified (residue 13)
With B4, in the assay with DLL3 on SHP-77 cells [1], the % Binding is > 50%.

B5: Cpd No. 301 (peptide)
peptide: Ac-WT[Tle]C[Ala(piperidin-4-yl)]N[2Nal]K(DOTA)DCWP-NH2
modifications: disulfide 4-10
With B5, in assay [2], the % Binding is > 25% and < 50%.

B6: Cpd No. 317 (peptide)
peptide: Ac-WT[Gly(4-THP)]CNN[2Nal]K(DOTA)DCWP-NH2
modifications: disulfide 4-10
SMILES: CC(=O)N[C@@H](Cc1c[nH]c2ccccc12)C(=O)N[C@H](C(=O)N[C@H](C(=O)N[C@H]1CSSC[C@@H](C(=O)N[C@@H](Cc2c[nH]c3ccccc23)C(=O)N2CCC[C@H]2C(N)=O)NC(=O)[C@H](CC(=O)O)NC(=O)[C@H](CCCCNC(=O)CN2CCN(CC(=O)O)CCN(CC(=O)O)CCN(CC(=O)O)CC2)NC(=O)[C@H](Cc2ccc3ccccc3c2)NC(=O)[C@H](CC(N)=O)NC(=O)[C@H](CC(N)=O)NC1=O)C1CCOCC1)[C@@H](C)O
With B6, the “% Binding” value with DLL3 on SHP-77 cells [3] and with DLL3 on CT26.DLL3 cells was ≤ 25% in each case.

B7: Cpd No. 300 (peptide)
peptide: Ac-WT[NMeNle]C[Ala(piperidin-4-yl)]N[2Nal]K(DOTA)DCWP-NH2
modifications: disulfide 4-10
Turning to B7, the % Binding in assay [2] is > 25% and < 50%.

B8: Cpd No. 249 (peptide)
peptide: Ac-WTICK(DOTA)N[2Nal]HDCWP-NH2
modifications: disulfide 4-10
SMILES: CC[C@H](C)[C@H](NC(=O)[C@@H](NC(=O)[C@H](Cc1c[nH]c2ccccc12)NC(C)=O)[C@@H](C)O)C(=O)N[C@H]1CSSC[C@@H](C(=O)N[C@@H](Cc2c[nH]c3ccccc23)C(=O)N2CCC[C@H]2C(N)=O)NC(=O)[C@H](CC(=O)O)NC(=O)[C@H](Cc2c[nH]cn2)NC(=O)[C@H](Cc2ccc3ccccc3c2)NC(=O)[C@H](CC(N)=O)NC(=O)[C@H](CCCCNC(=O)CN2CCN(CC(=O)O)CCN(CC(=O)O)CCN(CC(=O)O)CC2)NC1=O
notes: also called compound 249
B8: the “% Binding” value with DLL3 on SHP-77 cells [3] and with DLL3 on CT26.DLL3 cells was ≤ 25% each time.

B9: Cpd No. 449 (peptide)
peptide: Ac-WT[NMetBuAla]C[PipA(acetate-DOTA)]N[2Nal]K(DOTA)DCWP-NH2
modifications: linker 4-10 via CH2
As for B9, in the assay with DLL3 on SHP-77 cells [1], the % Binding was > 50%.

B10: Cpd No. 417 (peptide)
peptide: Ac-WT[Chg]C[Ala(piperidin-4-yl)]N[2Nal]K(DOTA)DCWP[dK]([PEG8-plPh])-NH2
modifications: bridge 4-10; not fully specified (bridges); reading uncertain; also: bridge 4-10: thioacetal per mods, disulfide
Regarding B10, the % Binding in assay [2] was > 25% and < 50%.

B11: Cpd No. 320 (peptide)
peptide: Ac-WT[NMeNle]CNN[2Nal]K(DOTA)DCWP-NH2
modifications: disulfide 4-10
With B11, the “% Binding” value with DLL3 on SHP-77 cells [3] and with DLL3 on CT26.DLL3 cells was ≤ 25% throughout.
